Columns and labels:
SEC = biological target: the molecule itself; test: SEC
crystal structure = biological target: the molecule itself; test: crystal structure

B1: short-chain dehydrogenase/reductase-family oxidoreductase from Brucella ovis ATCC 25840 (enzyme)
chain: MELLKEKLVLVTGAGRGLGAAISSGAAEQGARVILVDIDGTAAKAQADALTAKGFVAEGHALDVTDRDAVAALADDILSRFGGLDVLVNNAGVAGRAAFDQPEAVEVWDRVIGVNLEGAFNVSHALVPALKAAKGNVVHLCSVAGFVSGGSTAGYVVSKGAIRSLTQVMARDLAPHGIRVNAVAPGIMMSEMAVAQLNRPGGTDWFMNRVMMKRIGETSEVVDPVVFLASPMASYITGTILPVDGGFLAA
notes: also called BoSDR; B. ovis SDR; not shown: His6, N-terminal, kept
stoichiometry N (SEC): ~2
stoichiometry N (crystal structure): 4

From PMC12810213, “Crystal structure of a short-chain dehydrogenase from Brucella ovis with apo and coenzyme NAD^+-bound protomer chains” (Acta Crystallographica Section F: Structural Biology …, 2025)
